Tests used:
Format in all cases: cell-based
gene editing with dCas9 = assay: Screen of 322 new SSAP proteins, gene editing activity with dCas9 (Table 5); set-up: dCas9 with SSAP activity: scale not given here
Outline: (§1)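 The 322 SSAP proteins were found in sequence data and then synthesized. Each was screened for gene editing activity when paired with Cas9 and with dCas9.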

[1] = system: gene editing with Cas9 and dCas9; assay: Screen of 322 new SSAP proteins, activity across all experiments (Cas9 and dCas9, Table 5); set-up: scale not given here
Outline: as §1

gene editing with Cas9 = assay: Screen of 322 new SSAP proteins, gene editing activity with Cas9 (Table 5); set-up: Cas9 with SSAP activity: scale not given here
Outline: as §1

B1: SSAP_170: SEQ ID NO: 339; Dorea longicatena (protein, listed as Dorea longicatena)
chain: TVGKTDEIKQELARKVENTKAGTKLKKSMSIADMIKVMEPQIKKALPEVITPERFTRMALSALNTTPKLNECTPMSFLAALMNAAQLGLEPNTPLGQAFLIPYNNKGKMECQFQLGYKGLIDLSYRNPNMQIITAHTVYENDEFEYELGLNPCLDHRPTLGERGEIRLFYGLFKLTNGGFGFEVMSKTAMDDFAKEYSKAFDSSFSPWRTNYESMALKTIIKKALKYAPLKSEFRNALSTDETIKNEIGADMSEINSENIFDTVYQEECA
dCas9 with SSAP activity (gene editing with dCas9): −4.682 | dCas9 with SSAP activity (normalized) (gene editing with dCas9): −0.968 | Activity across all experiments [1]: −1.184 | Cas9 with SSAP activity (gene editing with Cas9): 2.314 | Cas9 with SSAP activity (normalized) (gene editing with Cas9): 1.852

B2: SSAP_227: SEQ ID NO: 396; Streptococcus parauberis (protein, listed as Streptococcus parauberis)
chain: ANQLTVVNTLQSDAVKEKFEAVMGEKANGFVSSVLSVVTNNNILSKADFNSVYTSAMKAAVLDLPVEPSLGMAHIVPYKGKAQFQIGYKGLIQLALRSGQVVGLNAGKVYEGQFKSFNALTEKLDIVDIYNPKKDEPIVGYFAYMKLSNGFEKTTYWTKEQVEEHGKKYSQSYDSKFSPWQTNFDAMARKTVLKSILSTYAPLTIEMQNANDFDNGKNTGIEPLEVKDVTPETDNESLLTDLLEDEPSVNTETGEIIEDTELDLDYGQINAK
dCas9 with SSAP activity (gene editing with dCas9): −4.819 | dCas9 with SSAP activity (normalized) (gene editing with dCas9): −0.774 | Activity across all experiments [1]: −2.575 | Cas9 with SSAP activity (gene editing with Cas9): −0.330 | Cas9 with SSAP activity (normalized) (gene editing with Cas9): −0.310

B3: SSAP_266: SEQ ID NO: 435; Bacteroides stercoris (protein, listed as Bacteroides stercoris)
chain: STITTIPQLKSMLANDNVKARFKEILGKKAPGFISSIVAVANSNTLLQKAEPQSIMNAAVVAATLDLPINPNLGFAYVVPYGNQAQFQMGWRGFVQLAMRSGQYKTINVNEIYEGEIKKSNRFTGEYEFGERASDKIVGYMAYFSLINGFEKFLYMSKEDCEKHGRKFSQTYKRGTGIWSTDFDSMAKKTVLKMLLSKFGILSIEMQRAQTFDQAIIKDNLAETDIDEAEVSYNDNPDNEEARRNAMKEALQEAEVVDENTGELFNTETK
dCas9 with SSAP activity (gene editing with dCas9): −4.677 | dCas9 with SSAP activity (normalized) (gene editing with dCas9): −0.799 | Activity across all experiments [1]: −5.345 | Cas9 with SSAP activity (gene editing with Cas9): −6.013 | Cas9 with SSAP activity (normalized) (gene editing with Cas9): −1.700

B4: SSAP_65: SEQ ID NO: 234 (protein)
chain: TQDLATAIADQQPAQRRTAFDLVESMRGELHKALPEHASIDNFLRLALTELKMNPQLGNCSGESLLGALMTAARVGLEVGGPLGQFYLTPRRLKRDGWAVVPIVGYRGLITLARRAGVGQVNAVVVHEGDTFREGASSERGFFFDWEPAVERGKPVGALAAARLAGGDVQHRYLSLAEVHERRDRGGFKDGSNSPWATDYDAMVRKTALRALVPLLPQSTALSFAVQADEQVQRYDAGDIDIPALDETDTEDTK
dCas9 with SSAP activity (gene editing with dCas9): −4.569 | dCas9 with SSAP activity (normalized) (gene editing with dCas9): −0.746 | Activity across all experiments [1]: −2.185 | Cas9 with SSAP activity (gene editing with Cas9): 0.198 | Cas9 with SSAP activity (normalized) (gene editing with Cas9): 0.190

B5: SSAP_97: SEQ ID NO: 266; Gilliamella apicola (protein, listed as Gilliamella apicola)
chain: SEQNQPPIAKSDLEKTQLTNQDKKPATLAELVNSPKIKNQLAMALPKHMNPDRMARIVTTEIRKTPALADSNIQSFLGAVVQCSQLGLEPGGALGHAYLLPFGNGKAKDGKSNVQLIIGYRGMIDLARRSGQIISISARTVREGDDFHYEYGLNEDLKHTPKADESAPITYVYAVARLKDGGSQFEVMTFNQIESVRKQSKAGDKGPWITHWEEMAKKTVIRRLFKYLPVSIEIQQAVILDEKAEAGISQDNEMILDADFSVVEA
dCas9 with SSAP activity (gene editing with dCas9): −4.633 | dCas9 with SSAP activity (normalized) (gene editing with dCas9): −0.842 | Activity across all experiments [1]: −5.290 | Cas9 with SSAP activity (gene editing with Cas9): −5.948 | Cas9 with SSAP activity (normalized) (gene editing with Cas9): −1.267

B6: SSAP_258: SEQ ID NO: 427; Clostridium thermopalmarium (protein, listed as Clostridium thermopalmarium)
chain: ATVNELKNEIATKKETGVGSAGNTIKGLINSPAIKKRFEDVLNKKAPQYMSSIVNLVNGDTNLKKCDQMSVIASCMVAATLDLPIDKNLGYAWIVPYGNRAQFQLGYKGYVQLALRTGQYKAINVIEVHEGELIEWNPLTEELKIDFSQKKSDAIIGYAGYFELLNGFKKSTYWTKEQIIRHKNKFSKSDFGWKKDFDAMAKKTVLRNMLSKWGILSIEMQNAYTADQATIRPEAVETGDIKGNVDYVEADFEENYEGTPFEEVEEGGVNE
dCas9 with SSAP activity (gene editing with dCas9): −4.748 | dCas9 with SSAP activity (normalized) (gene editing with dCas9): −0.956 | Activity across all experiments [1]: −4.014 | Cas9 with SSAP activity (gene editing with Cas9): −3.280 | Cas9 with SSAP activity (normalized) (gene editing with Cas9): −0.553

B7: SSAP_106: SEQ ID NO: 275; Tepidibacillus fermentans (protein)
chain: ATNEKVKTQLANRANGQAPTPTPEQTIAAYMKKMAPRFAEVLPKHMDIDRMTRIALTTIRTNPKLLEASVPSLLGAIMQAAQLGLEPGLVGHCYLVPFKNGKTGQTEVQFIIGYKGMIDLARRSGNIESIYAHAVYENDTFEYEYGLHPKLVHKPAMTDRGEFIGAYAVAHFKDGGYQFEFMPKEEIEKRRNRSKTANGGPWVTDYEEMAKKTVVRHMWKYLPISIEIQQAAAQDEVIRKDVTSEPEFVDDVIDISTEIEEQSVEVEGEEAQ
modifications: Tepidibacillus fermentans
dCas9 with SSAP activity (gene editing with dCas9): −4.572 | dCas9 with SSAP activity (normalized) (gene editing with dCas9): −0.829 | Activity across all experiments [1]: −5.073 | Cas9 with SSAP activity (gene editing with Cas9): −5.574 | Cas9 with SSAP activity (normalized) (gene editing with Cas9): −1.211

B8: SSAP_27: SEQ ID NO: 196 (protein)
chain: SNNQLSTQQAKRDIAIDTSVWTFQDVKRYFDPQNLLTEKQVGQALSLIKGRNLNPLANEVYIVAYKKKTGGTEFSLIVSKEAFLKRAAQNPNYEGFEAGVVTVDTDGVMHERKGALMLPGDTLVGGWARVYRKNFKVPVEIFVSREEYDKKQSTWNAMPATMIRKTALVNALREAFPEDLGNMYTEDDGGETFDRIKQAEPVESREDVMARKMAQIEQMKQEQAQRQIDTSYPTDDVIDPDDEPAQGELLEDLEY
dCas9 with SSAP activity (gene editing with dCas9): −4.680 | dCas9 with SSAP activity (normalized) (gene editing with dCas9): −0.675 | Activity across all experiments [1]: −3.661 | Cas9 with SSAP activity (gene editing with Cas9): −2.642 | Cas9 with SSAP activity (normalized) (gene editing with Cas9): −0.956

B9: SSAP_130: SEQ ID NO: 299; Peptoanaerobacter stomatis (protein, listed as Peptoanaerobacter stomatis)
chain: GAKELIQKKQENKQISPTSNMNMLLQSMAGAIKKALPAQINSERFQRVALTAFSSNQKLQQCDPISFLAAMMQSAQLGLEPNTPLGQAYLIPYGKQVQFQVGYKGLLELAQRSGQFKSIYSHEVRENDEFEMEYGLNQKLVHKPNLKQERGEVIGYYACYHLTNGGESMFFMTKDEIINFGKSKSKTFNNGPWQTDFDAMAKKTVLKQLLKYAPLSIESQKFMSMDETVKSDISANMDEINNDTVDFEVDIQTGEVINDIVVENTNEDEAN
dCas9 with SSAP activity (gene editing with dCas9): −4.650 | dCas9 with SSAP activity (normalized) (gene editing with dCas9): −0.774 | Activity across all experiments [1]: −2.714 | Cas9 with SSAP activity (gene editing with Cas9): −0.778 | Cas9 with SSAP activity (normalized) (gene editing with Cas9): −0.800

B10: SSAP_74: SEQ ID NO: 243 (protein)
chain: SNPPLAQADLQKTQGTEVKTKTKDQQLIHFINQPSMKAQLAAALPRHMTPDRMIRIVTTEIRKTPALANCDMQSFIGAVVQCSQLGLEPGNALGHAYLLPFGNGKAKSGQSNVQLIIGYRGMIDLARRSNQIISISARTVRQGDSFHFEYGLNENLTHVPGENEDSPITHVYAVARLKDGGVQFEVMTHNQIEKVRASSKAGQNGPWVSHWEEMAKKTVIRRLFKYLPVSIEMQKAVILDEKAEANVDQENASVFEGEFEEVSQSA
dCas9 with SSAP activity (gene editing with dCas9): 0.668 | dCas9 with SSAP activity (normalized) (gene editing with dCas9): 0.984 | Activity across all experiments [1]: 0.781 | Cas9 with SSAP activity (gene editing with Cas9): 0.893 | Cas9 with SSAP activity (normalized) (gene editing with Cas9): 0.751

B11: SSAP_275: SEQ ID NO: 444; Paenibacillus pinihumi (protein, listed as Paenibacillus pinihumi)
chain: ADANKLLVINEKLIKLIESKQDAMPKSFNKTRFIQNCMAVLQDTDEIDKCDATSVARTLLKGAFLGLDFMNKECYPIIYGGKCTFQTDYKGEIKLAQKYSVRPVLNIYAELVREGDFFLKEVKDGQRTIQHKPPEGFNDGKVIGAFAIVLYKDGGMDCESMSVAEIETTRKNYSKQANGPSWTKSPGEMQKKTVLRRLCKTIQLDFDTIEAKEAFEDGGDFDFKQDPKPQQQSPFDKNATVVDAEYEEVEEEDQSESAT
dCas9 with SSAP activity (gene editing with dCas9): −4.593 | dCas9 with SSAP activity (normalized) (gene editing with dCas9): −0.870 | Activity across all experiments [1]: −2.900 | Cas9 with SSAP activity (gene editing with Cas9): −1.206 | Cas9 with SSAP activity (normalized) (gene editing with Cas9): −0.494

B12: SSAP_259: SEQ ID NO: 428; Virgibacillus chiguensis (protein, listed as Virgibacillus chiguensis)
chain: ATNSSLKNQIANKGNGNQNTPQGYTVKQLMSASSVKNRFEETLGKKAPQFMASVINLVNGDTNLQKCDQMSVVSSAMVAAALDLPIDKNLGYAWVVPYGNKATFQMGYKGYIQLALRTGQYKNINVIEVYEGEVKSFNRLTEEIELEFEGKESDKVIGYVGYFELINGFRKTVYWSKDEIERHKKRFSKTGFAWKDNYDAMAKKTVIRNMLNKWGILSIDMQTAVTTDGNAVTQDFEQEDSGLVIDAEFSEVNEASEGQQEIKFENADA
dCas9 with SSAP activity (gene editing with dCas9): −4.841 | dCas9 with SSAP activity (normalized) (gene editing with dCas9): −1.414 | Activity across all experiments [1]: −3.807 | Cas9 with SSAP activity (gene editing with Cas9): −2.773 | Cas9 with SSAP activity (normalized) (gene editing with Cas9): −0.529

B13: SSAP_176: SEQ ID NO: 345; Absicoccus porci (protein, listed as Absicoccus porci)
chain: TTTNQQGMITKKANNSVAKKTNRTMKDYITMYQGEIAKALPSVMTPERFVRIATTAVTNTPKLASCTPQSFIGALLNAAQLGLEPNTPLGQAYLIPYGNQCQFQIGYLGMVELAQRAGTNVDAHVVYANDEFDYSLGLHPDIKHVPAMKDRGEAIAYYAVWHNGENFGFEVMSREDVEKHMKKYSKTYSNGPWKTEFDEMAKKTVLKRALKYAPKKTDLARAVMQDETIKQFNPKADNDMADAKNDFFDVEYDEVDENTDPVTGEVK
dCas9 with SSAP activity (gene editing with dCas9): −4.682 | dCas9 with SSAP activity (normalized) (gene editing with dCas9): −0.680 | Activity across all experiments [1]: −1.789 | Cas9 with SSAP activity (gene editing with Cas9): 1.105 | Cas9 with SSAP activity (normalized) (gene editing with Cas9): 2.418

Source: patent publication US20250034594A1, “RNA-GUIDED GENOME RECOMBINEERING AT KILOBASE SCALE” (THE BOARD OF TRUSTEES OF THE LELAND STANFORD JUNIOR …, priority 2021, published 2025)
